Source: the supplement of paper PMC7877785
± gives the uncertainty stated by the source.

Test: self-splicing fitness, log relative to wild type (ln ratio); higher = more splicing; Tetrahymena group I intron in knt gene, E. coli kanamycin selection, DiMSum; sequences stand for … in CUCUCU…GGAGGGAAAAGUUAUCAGGCAUGCACCUGGUAGCUAGUCUUUAAACCAAUAGAUUGCAUCGGUUUAAAAGGCAAGACCGUCAAAUUGCGGGAAAGGGGUCAACAGCCGUUCAGUACCAAGUCUCAGGGGAAACUUUGAGAUGGCCUUGCAAAGGGUAUGGUAAUAAGCUGACGGACAUGGUCCUAACCACGCAGCCAAGUCCUAAGUCAACAGAUCUUCUGUUGAUAUGGAUGCAGUUCACAGACUAAAUGUCGGUCGGGGAAGAUGUAUUCUUCUCAUAAGAUAUAGUCGGACCUCUCCUUAAUGGGAGCUAGCGGAUGAAGUGAUGCAACACUGGAGCCGCUGGGAACUAAUUUGUAUGCGAAAGUAUAUUGAUUAGUUUUGGAGUACUCGUGGUCG
Procedure, shortened: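 DiMSum derived fitness as the error-weighted combination of fold changes across replicates, kanamycin versus no kanamycin, normalised to wild type. E. coli BL21(DE3) held the library, which randomised all eight P1ex-region intron nucleotides within the knt kanamycin-resistance gene on pET-22b(+). Six replicate transformations grew overnight at 37°C or 30°C on LB agar with or without 25 μg/mL kanamycin, also containing 100 μg/mL carbenicillin, 50 μM IPTG and 0.2% rhamnose, and pooled colonies were amplicon-sequenced on an Illumina HiSeq 2500.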

Sequence	self-splicing fitness (ln) (30 °C)	self-splicing fitness (ln) (37 °C)
CACUAGCAAUAUUACGGCGA	-2.43 ± 0.16	-1.61 ± 0.2
CACUAGCAAUAUUACGGCGG	-0.21 ± 0.079	-0.0455 ± 0.092
CACUAGCAAUAUUACGGCUC	-2.9 ± 0.17	-1.79 ± 0.3
CACUAGCAAUAUUACGGCUU	-3.4 ± 0.24	-1.91 ± 0.21
CACUAGCAAUAUUACGGUCG	-0.198 ± 0.072	0.007 ± 0.085
CACUAGCAAUAUUACGGUUC	-2.4 ± 0.12	-1.45 ± 0.16
CACUAGCAAUAUUACGGUUU	-1.56 ± 0.077	-0.979 ± 0.093
CACUAGCAAUAUUACGUACA	-2.35 ± 0.21	-1.29 ± 0.4
CACUAGCAAUAUUACGUAGA	-3.01 ± 0.089	-1.81 ± 0.096
CACUAGCAAUAUUACGUCUG	-0.516 ± 0.058	0.214 ± 0.074
CACUAGCAAUAUUACGUGUG	-3.71 ± 0.14	-2.82 ± 0.16
CACUAGCAAUAUUACGUUGC	-2.61 ± 0.22	-1.58 ± 0.21
CACUAGCAAUAUUACGUUUG	-2.29 ± 0.079	-1.42 ± 0.11
CAGAAGCAAUAUUACGAAUU	-3.5 ± 0.2	-2.05 ± 0.27
CAGAAGCAAUAUUACGACGG	-0.126 ± 0.079	0.104 ± 0.1
CAGAAGCAAUAUUACGAGUG	-1.63 ± 0.067	-0.988 ± 0.091
CAGAAGCAAUAUUACGAGUU	-3.32 ± 0.34	-2.47 ± 0.3
CAGAAGCAAUAUUACGCAUA	-3.68 ± 0.24	-2.02 ± 0.18
CAGAAGCAAUAUUACGCCUG	-2.25 ± 0.23	-3.94 ± 0.39
CAGAAGCAAUAUUACGCGGG	-2.43 ± 0.2	-2.74 ± 0.27
CAGAAGCAAUAUUACGCGGU	-3.61 ± 0.12	-2.34 ± 0.14

Sequence	self-splicing fitness (ln) (30 °C)	self-splicing fitness (ln) (37 °C)
CAGAAGCAAUAUUACGCUGU	-4.53 ± 0.37	-2.83 ± 0.21
CAGAAGCAAUAUUACGCUUA	-3.85 ± 0.32	-1.9 ± 0.18
CAGAAGCAAUAUUACGGCGC	-3.28 ± 0.32	-1.6 ± 0.31
CAGAAGCAAUAUUACGUAUG	-4.42 ± 0.16	-2.56 ± 0.13
CAGAAGCAAUAUUACGUGGU	-3.58 ± 0.17	-1.86 ± 0.16
CAGAAGCAAUAUUACGUUAA	-3.62 ± 0.27	-3.02 ± 0.43
CAGAAGCAAUAUUACGUUGC	-4.27 ± 0.26	-2.74 ± 0.25
CAGCAGCAAUAUUACGAAAA	-2.36 ± 0.2	-2.26 ± 0.28
CAGCAGCAAUAUUACGAAAG	-0.597 ± 0.09	-0.18 ± 0.12
CAGCAGCAAUAUUACGAAAU	-3.94 ± 0.25	-2.97 ± 0.27
CAGCAGCAAUAUUACGAACA	-2.72 ± 0.38	-2.17 ± 0.32
CAGCAGCAAUAUUACGACGA	-1.68 ± 0.13	-0.501 ± 0.096
CAGCAGCAAUAUUACGACGC	–	-1.5 ± 0.45
CAGCAGCAAUAUUACGAGAG	-2.38 ± 0.083	-1.81 ± 0.089
CAGCAGCAAUAUUACGAGAU	-2.65 ± 0.24	-1.71 ± 0.2
CAGCAGCAAUAUUACGAUAG	-0.297 ± 0.063	-0.0435 ± 0.077
CAGCAGCAAUAUUACGAUAU	-3.29 ± 0.24	-2.3 ± 0.19
CAGCAGCAAUAUUACGAUCA	-2.71 ± 0.2	-1.88 ± 0.21
CAGCAGCAAUAUUACGAUCU	-3.54 ± 0.35	-2.38 ± 0.19
CAGCAGCAAUAUUACGCGCA	-0.471 ± 0.13	-0.346 ± 0.16
CAGCAGCAAUAUUACGCUCU	-3.08 ± 0.16	-2.08 ± 0.17
